Laboratory results as given in patent US20170166631A1 (NEURIMMUNE, published 2017).

Columns and labels:
[1] = biological target: T1, GST-HttExon1Q21 (recombinant huntingtin exon 1 protein with 21 polyQ repeats fused to an N-terminal GST tag) (human, UniProt P08515 1-218 = GST; P42858 1-88); assay: direct ELISA, antigen coated at 5 ug/ml
T1 construct: Expressed in E. coli BL21; also called GST-HD21; soluble GST-HD21; not shown: PreScission cleavage site

[2] = biological target: T2, HD21 (huntingtin exon 1 protein with 21 polyQ repeats after cleavage of the GST tag; aggregation reaction) (human, UniProt P42858 1-88); assay: direct ELISA, antigen coated at 5 ug/ml
T2 construct: domain: Exon1; Residues left by the protease site are not described; Aggregated preparation or time-resolved aggregation reaction; also called aggregated HD21; HttExon1Q21
T2 sequence (P42858 1-88 limits assumed, change not shown): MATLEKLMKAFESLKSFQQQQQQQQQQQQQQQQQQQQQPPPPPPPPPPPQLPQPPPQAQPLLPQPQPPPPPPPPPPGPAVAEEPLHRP

[3] = biological target: T2, HD21 (huntingtin exon 1 protein with 21 …); assay: direct ELISA (Example 25, FIG. 20)
[4] = biological target: T3, HD35 (huntingtin exon 1 protein with 35 polyQ repeats after cleavage of the GST tag; aggregation reaction) (human, UniProt P42858 1-88); assay: filter retardation assay (SDS stable aggregates)
T3 construct: domain: Exon1; Residues left by the protease site are not described; Time-resolved aggregation reaction; also called HD35 aggregates; HttExon1Q35
T3 sequence (P42858 other isoform, or with tags, fused parts or gaps limits assumed): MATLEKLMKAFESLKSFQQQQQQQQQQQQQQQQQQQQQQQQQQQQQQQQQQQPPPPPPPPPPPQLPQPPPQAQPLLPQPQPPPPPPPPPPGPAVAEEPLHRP

[5] = biological target: T4, HD49 (huntingtin exon 1 protein with 49 polyQ repeats after cleavage of the GST tag; aggregation reaction) (human, UniProt P42858 1-88); assay: direct ELISA; reference HD21; aggregated or GST-fused form not said
T4 construct: domain: Exon1; Residues left by the protease site are not described; Aggregated preparation or time-resolved aggregation reaction; also called aggregated HD49; aggregated HTT Exon1 HD49
T4 sequence (P42858 other isoform, or with tags, fused parts or gaps limits assumed): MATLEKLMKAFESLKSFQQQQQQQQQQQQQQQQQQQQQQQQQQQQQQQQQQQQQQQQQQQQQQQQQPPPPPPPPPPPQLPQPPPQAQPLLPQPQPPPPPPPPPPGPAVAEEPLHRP

[6] = biological target: T1, GST-HttExon1Q21 (recombinant huntingtin …); assay: direct ELISA

T1 sequence (P08515 1-218, tags or fused parts left off): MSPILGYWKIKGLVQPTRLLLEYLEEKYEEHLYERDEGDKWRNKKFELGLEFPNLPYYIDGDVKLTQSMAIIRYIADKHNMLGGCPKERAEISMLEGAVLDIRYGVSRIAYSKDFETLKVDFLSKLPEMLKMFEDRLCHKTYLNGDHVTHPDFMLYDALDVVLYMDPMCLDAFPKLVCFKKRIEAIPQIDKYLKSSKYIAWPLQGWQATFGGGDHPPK

B1: NI-302.71F6 (antibody, V domains shown)
VH: QVQLQQWGAGLLKPSETLSLTCAVYGGSLSGYYWSWIRQPPGKGLEWIGEVNHSGGTNLNSSLKSRVIISVDKSKKQFSLKLSSVTAADTAMYFCARGYSYDPKYYFDSWSQGTLVTVSS
VL: QSALTQPASVSGSPGQAITISCTGTSSDIGSYDFVSWYQQDPGKAPKVIIYGVNKRPSGVSNRFSGSKSGNTASLTISGLQADDEADYYCCSYAGSTTWVFGGGTKLTVL
Does B1 bind [1]?
Result: binds

Does B1 bind [2]?
Result: binds

B2: NI-302.6N9 (antibody, human IgG1, V domains shown)
VH: EVQLVESGGDLVQPGGSLRLSCVVSGFTFSSYAMTWVRQAPGKGLAWVSTISATGGSTFYTDSVRGRFTISRDNSKNTLYLQMNSLRTDDTAIYYCVKDLFGVDTSYYGMDVWGQGTTVTVSS
VL: EIVLTQSPGTLSLSPGERATLSCRPSQSVSGRYVAWYQQKPGQAPRLLFYAASNRAIGIPDRFSGSGSGTDFTLTISRLEPEDFAVYYCQHYGASSYTFGPGTKVDIK
notes: Expressed as complete human IgG1
Does B2 bind [3]?
Result: binds

B3: NI-302.55D8 (antibody, V domains shown)
VH: QVQLVQSGSEVKKPGASVKVSCKASGYTFTDYYIHWVRQAPGQGLEWMGRINPNNGGTNYAQNFQGWVTMTRDTSISTAYMELSRLRSDDTAVYYCARVGGELLREGGYHYYMDVWGKGTTVTVSS
VL: QSVLTQPPSVSGAPGQRVTISCTGNSSNIGAGYDVHWYQQLPGTAPKLLIFDNTNRPSGVPDRFSGSKSGTSASLAITGLQAEDEANYHCQSYDNSLSGSWVFGGGTKLTVL
Does B3 bind [1]?
Result: binds

B4: NI-302.22H9 (antibody, V domains shown)
VH: EVQLVESGGGLVHPWGSLRVSCAASGFSVSNYAITWVRQAPGKGLEYISVIYRDGRTYYGDSVRGRFTISRDDSKNTIYLQMNSLRFEDTAVYYCARAHGQYYYGVDVWGQGTTVTVSS
VL: DVVMTQSPLSLSVSPGEPASISCRSSQSLLHSNGYNYLDWYRQKPGQSPQLLIYLNSNRASGVPDRFSGSGSGTEFTLTISRVEAEDVGVYYCMQSLQTFTFGGGTKVEIK
Does B4 bind [1]?
Result: binds

B5: NI-302.44D7 (antibody, human IgG1, V domains shown)
VH: EVQLVQSGGGLVQPGGSLRLSCAASGFTFSSYAMSWVRQAPGKGLEWVSGIGYSDTSTYYADSVKGRFTVSRDISKNTLYLQMNSLRAEDTAVYYCAKGTRDYYGMDVWGQGTMVTVSS
VL: QTVVTQEPSFSVSPGGTVTLTCGLSSGSVSTSYYPSWYQQTPGRAPRTLIYSTNTRSSGVPDRFSGSILGNKAALTITGAQADDESDYYCVLFMGSGIGVFGGGTRLTVL
notes: as for B2
Does B5 bind [4]?
Result: no binding (tested: 0.2 µg/ml primary antibody)

B6: NI-302.15F9 (antibody, human IgG1, V domains shown)
VH: EVQLVESGGGLVTPGGSLRLSCEASGFLFKNSSMNWVRQTPGKGLEWVSSIDTSATNYKYYADSVKGRFTISRDDATNSLYLQMNSLRADDTATYYCARGYYTPRDFDYWGQGTLVTVSS
VL: DVVMTQSPQTLSVSLGQAASISCRSSQSLLYRDNNTYLNWFHQRPGQSPRRLIYRASDRDSGVPDRFSGGGSGTDFTLKISGVEAEDVGTYYCMQGTHWPRTFGQGTKVEIK
notes: as for B2
B6 was tested. Which “fold preference of HD49 vs. HD21” value [5] did it give?
The value was about 5 fold.

B7: NI-302.7D8 (antibody, V domains shown)
VH: QVQLVQSGSELKKPGASVKVSCKASGYNFNNYAINWLRQAPGQGLEWMGWINTITGHPTYAQGFKGRFVFSLDTSVSTAYLQISSLKPEDTAVYYCARTYSNYGEFDYWGQGTLVTVSS
VL: QSALTQPASVSGSRGQSITISCTGTSSDVGSYNLVSWYQQYPGKAPKLIIHEGSERPSGVSNRFSGSKSGNTASLTISGLQAEDEADYYCCSYAGTTTFVLFGGGTKLTVL
notes: also called anti-poly Q/P domain antibody
Does B7 bind [1]?
Result: binds

B8: NI-302.15E8 (antibody, V domains shown)
VH: EVQLVESGGGLIQPGGSLRLSCAVSGFTVSSYSMNWVRQAPGKGLEWVSYTSSSRSNTKKYADSVKGRFTISRDNARNSLYLQMNSLRDEDTAVYYCARAGDFGELLTGEGYYGMDVWGQGTTVTVSS
VL: SYELTQPPSVSVSPGQTATITCSGDELGDKYVGWYQQKPGQSPLLVIYQDAKRPSGIPERFSGSNSGNTATLTISGTQAMDEADYYCQAWDSGTMVFGGGTRLTVL
notes: also called anti-N-terminal domain antibody
Does B8 bind [6]?
Result: binds

Does B8 bind [2]?
Result: binds

B9: NI-302.64E5 (antibody, V domains shown)
VH: EVQLVETGGGLVKPGGSLRLSCAASGFTFDQAWMSWVRQVPGKGLEWVGRIKTKTEGEATDYAAPVRGRFTISRDDSEDTVFLQMNSLKTEDTALYYCTSTGVLAAAVDVYWGQGTLVTVSS
VL: DIQLTQSPDSLAVSLGERATMTCKSSQSLFYSYNNENYLAWYQQRPGQPPKLLIYWASTRESGVPDRFSGSGSGTDFTLTISSLQAEDVAVYYCQQYYSTPQTFGQGTKVDIK
Does B9 bind [1]?
Result: binds

B10: NI-302.35C1 (antibody, V domains shown)
VH: EVQLVESGGNLVQPGGSLRLSCTASGFTFSITALSWVRQAPEKGPQWVSAITGNAYGTYYADSVKGRFTISRDNAKNTLYLQMNGLRAEDTAIYYCVKGIASDSSGYSAFWGPGTLVTVSS
VL: EIVLTQSPATLSLSPGERATLSCRASQSVDNQFAWYQQKPGQAPRLLIYDASRRAPGIPDRFSGSGSGTDFTLTISSLEPEDFAIYYCQHRYTWLYTFGQGTRLEIK
notes: also called anti-C-terminal domain antibody
Does B10 bind [1]?
Result: binds

B11: NI-302.33C11 (antibody, V domains shown)
VH: EVQLVESGGGVVQPGNSLRLSCAASGFRFSDFGMHWVRQAPGKGLEWLALIWYDGGYKYYADSVKGRFTISRDNSKNTMFLQMNSLRAEDTAVYYCATHLEYCSRTTCYLGHWGQGTLVTVSS
VL: DIQLTQSPSFLSASVGDTVTFTCRASQGISDYLAWFQQKPGIAPKLLIYAASTLQTGVPSRFSGSGSGTEFTLTIRSLQSEDFGTYYCQQLKTYPYTFGQGTKVEIK
notes: also called anti-polyP domain antibody
For B11, which EC50 [1] is on record?
Its EC50 is about 0.1 nM.

B12: NI-302.11A4 (antibody, V domains shown)
VH: EVQLVESGGGLIQPGGSLRLSCAASGFPVSSSYMSWVRQAPGEGLEWVSVLYRDGDTYYADSVQGRFTISRDNSQNTFYLQMNSLKAEDTAVYYCAGDRRSSHYYYGMDVWGQGTTVTVSS
VL: EIVMTQSPGTLSLSPGERATLSCRASQSVSSSYFAWYQQKPGQAPRLLIYGTSRRATAIPDRFSGSGSGTDFTLTISRLEPEDFAVYYCQQYGSSWTFGPGTKVEIK
Does B12 bind [1]?
Result: binds

B13: NI-302.37C12 (antibody, V domains shown)
VH: EVQLVESGGGLVQPGGSLRLSCVASALTVTNSQMTWVRRAPGRGLEWVSVIYTSGSAYYADSVKGRFTISRDNSKNTVFLQMNSLRVEDTAVYYCAKGPSAYYYGLDLWGQGTTVTVSS
VL: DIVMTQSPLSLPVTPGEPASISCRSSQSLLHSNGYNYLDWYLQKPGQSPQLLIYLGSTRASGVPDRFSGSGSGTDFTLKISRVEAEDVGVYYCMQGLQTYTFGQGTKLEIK
Which results are given for B13?
binding result [1]: binds; binding result [4]: no binding (tested: 0.2 µg/ml primary antibody)

B14: NI-302.63F3 (antibody, V domains shown)
VH: QVQLVQSGSAFKKPGTSVKVSCKASGYTFETRSMNWVRQAPGQGLEYMGWINTNTGNRTYVQAFRGRFVFSLDTSVSTAYLQISNLKTEDTAVYYCARGAGGGYWFDSWGQGTLVTVSS
VL: DIQMTQSPDSLAVSLGERATINCKSNQSLFYSSNNNNYLAWYQHKSGQPPKLLVYWGSTRESGVPDRFSGSGSGTDFTLTISSLQAEDVAIYYCHQYYHNPYTFGQGTKLEIK
notes: also called anti-P-rich domain antibody; anti-proline-rich domain antibody
Does B14 bind [1]?
Result: binds

Does B14 bind [2]?
Result: binds

B15: NI-302.4A6 (antibody, V domains shown)
VH: EVQLVESGGGLVQPGGSLRLSCAASGFTFSAYAMSWVRQAPGKGLEWVSTISGSGGSTYYADSVKGRFSISRDNSKNTLYLQMNSLRAEDTAVYFCAKVTTELYGANSYYYYMDVWGKGTTVTVSS
VL: EIVLTQSPGTLSLSPGERATLSCRASQSVVSRYLAWYQQKPGQAPRLLIYGASSRATGIPDRFSGSGSGTDFTLTISRLEPEDFAMYYCQLYGNSQTFGQGTKVEIK
Does B15 bind [1]?
Result: binds

B16: NI-302.74C11 (antibody, V domains shown)
VH: EVQLVQSGTEVQKPGASVKVSCKASGYSFTGYFLHWVRQAPGQGLEWMGWINPNSGDTNYAEKFRGRIIMTRDTSVSTAHMELSSLRFDDTALYYCTREAPDPGAETDVWGQGTTVTVSS
VL: QSVLTQPPSVSVSPGQTARITCSGDAVPKQYIYWYQQKPGQAPILVIYKDTQRPSGIPERFSGSNSGTTVTLTITGVQADDEGDYYCQSADSSATWVFGGGTKLTVL
Does B16 bind [1]?
Result: binds

Does B16 bind [2]?
Result: binds

B17: NI-302.8M1 (antibody, V domains shown)
VH: EVQLVQSGAEVKKPGASVKVSCKASGYTFTIYYMHWVRQAPGQGLEWMGGISPSGAHTMYAQNFQGRVTVTRDTSTSTVYMELSSLRSEDTAVYYCARGSTVTNYRPFDYWGQGTLVTVSS
VL: DIQMTQSPSSLSASVGDRVTITCRASQDISNYLAWYQQKPGKVPKLLIFAASTLQSGVPSRFGGSGSGTDFTLTISSLQPEDVATYYCQNYNSGPPPFGPGTKVDIK
Does B17 bind [1]?
Result: binds
